Experimental data from the supplement of paper PMC10065799, “High-throughput profiling of sequence recognition by tyrosine kinases and SH2 domains using bacterial peptide display” (eLife, 2023).

System: AncSZ;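 note: 11-residue human phosphosite peptides and single-mutation variants displayed on the E. coli surface, counted by deep sequencing, each peptide's frequency after selection divided by its frequency in the unselected input library; frequency after pTyr selection over input frequency; kinase dosed for 20-30% of maximal phosphorylation in three min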
Assay: phosphorylation enrichment, bacterial display (enrichment ratio); higher = better substrate or ligand; peptides without Tyr show the background
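Throughout, for SH2 binding enrichment of the phosphorylated peptide, bacterial display: peptide library displayed on the E. coli surface as eCPX fusions, selected cells deep-sequenced, score is each peptide's frequency after selection divided by its frequency in the input.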

| Sequence | phosphorylation enrichment |
| --- | --- |
| EQKKNYNAMKK [SCN5A_Y1495_Y1494N] | 0.847 |
| FDGKDYIALNE [HLA-A_Y147_YF] | 1.21 |
| QEIATYPRLLE [KRT14_Y415_R416P] | 1.08 |
| ANAFIYDVQLP [L1CAM_Y420_V421D_YF] | 1.1 |
| GRQWNYVASMS [KLHL4_Y552] | 0.799 |
| TKVVHYWKWIK [KLK2_Y249_R250W] | 0.812 |
| KLADIYQAELR [GFAP_Y116_V115I] | 0.789 |
| TAALWYIFLHT [ENG_Y612_S615L_YF] | 1.32 |
| LYRYGYANTSE [SI_Y1233_C1229Y] | 0.806 |
| DEGVNHFMSKG [FBXO8_Y156_Y156H] | 0.61 |
| LSQAKYQIRFR [CRLF1_Y272_F268S_YF] | 0.933 |
| PEEKVYLSRGD [CRACR2A_Y141_H136P] | 1.44 |
| NKVKFYIPYMN [NCR1_Y84_D87Y] | 0.919 |
| GEFHVYRHLRR [PRKRIP1_Y82] | 1.3 |
| INNIDYFKKTT [FGFR2_Y656_YF] | 0.768 |
| NLGQQYNSPQE [UMPS_Y432] | 0.895 |
| FVSIVYNDSGE [TSC2_Y1650] | 0.951 |
| PSAELYSNALP [PDGFRB_Y716] | 1.55 |
| DRLAVCIDRVR [LMNA_Y45_Y45C] | 0.942 |
| EDEGLYTVRVP [MYOM3_Y343_M344T] | 1.64 |
| LDTIQYSKHPP [SQSTM1_Y433] | 1.01 |
| SIRYNYLLDVL [FGFR4_Y237] | 0.943 |

Biological target: c-Src SH2
Assay: SH2 binding enrichment of the phosphorylated peptide, bacterial display (enrichment ratio); higher = better substrate or ligand; peptides without Tyr show the background

| Sequence | SH2 binding enrichment |
| --- | --- |
| EQKKNYNAMKK [SCN5A_Y1495_Y1494N] | 0.597 |
| FDGKDYIALNE [HLA-A_Y147_YF] | 0.557 |
| QEIATYPRLLE [KRT14_Y415_R416P] | 0.443 |
| ANAFIYDVQLP [L1CAM_Y420_V421D_YF] | 0.51 |
| GRQWNYVASMS [KLHL4_Y552] | 0.767 |
| TKVVHYWKWIK [KLK2_Y249_R250W] | 1.12 |
| KLADIYQAELR [GFAP_Y116_V115I] | 0.541 |
| TAALWYIFLHT [ENG_Y612_S615L_YF] | 0.593 |
| LYRYGYANTSE [SI_Y1233_C1229Y] | 2.44 |
| DEGVNHFMSKG [FBXO8_Y156_Y156H] | 0.464 |
| LSQAKYQIRFR [CRLF1_Y272_F268S_YF] | 0.645 |
| PEEKVYLSRGD [CRACR2A_Y141_H136P] | 0.457 |
| NKVKFYIPYMN [NCR1_Y84_D87Y] | 1.51 |
| GEFHVYRHLRR [PRKRIP1_Y82] | 0.501 |
| INNIDYFKKTT [FGFR2_Y656_YF] | 0.445 |
| NLGQQYNSPQE [UMPS_Y432] | 0.573 |
| FVSIVYNDSGE [TSC2_Y1650] | 0.705 |
| PSAELYSNALP [PDGFRB_Y716] | 0.629 |
| DRLAVCIDRVR [LMNA_Y45_Y45C] | 0.541 |
| EDEGLYTVRVP [MYOM3_Y343_M344T] | 0.488 |
| LDTIQYSKHPP [SQSTM1_Y433] | 0.408 |
| SIRYNYLLDVL [FGFR4_Y237] | 1.7 |

Biological target: Grb2 SH2 (UniProt P62993)
Sequence (P62993 whole entry, looked up): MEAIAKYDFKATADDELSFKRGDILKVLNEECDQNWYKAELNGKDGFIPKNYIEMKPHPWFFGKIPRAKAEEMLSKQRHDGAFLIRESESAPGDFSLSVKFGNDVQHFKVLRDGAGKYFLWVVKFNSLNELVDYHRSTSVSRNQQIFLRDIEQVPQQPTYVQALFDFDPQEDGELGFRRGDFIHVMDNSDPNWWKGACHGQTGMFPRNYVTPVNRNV
Assay: as above

| Sequence | SH2 binding enrichment |
| --- | --- |
| EQKKNYNAMKK [SCN5A_Y1495_Y1494N] | 0.895 |
| FDGKDYIALNE [HLA-A_Y147_YF] | 0.785 |
| QEIATYPRLLE [KRT14_Y415_R416P] | 0.575 |
| ANAFIYDVQLP [L1CAM_Y420_V421D_YF] | 1.01 |
| GRQWNYVASMS [KLHL4_Y552] | 1.04 |
| TKVVHYWKWIK [KLK2_Y249_R250W] | 1.41 |
| KLADIYQAELR [GFAP_Y116_V115I] | 1.01 |
| TAALWYIFLHT [ENG_Y612_S615L_YF] | 0.98 |
| LYRYGYANTSE [SI_Y1233_C1229Y] | 2.63 |
| DEGVNHFMSKG [FBXO8_Y156_Y156H] | 0.718 |
| LSQAKYQIRFR [CRLF1_Y272_F268S_YF] | 1.12 |
| PEEKVYLSRGD [CRACR2A_Y141_H136P] | 0.804 |
| NKVKFYIPYMN [NCR1_Y84_D87Y] | 1.74 |
| GEFHVYRHLRR [PRKRIP1_Y82] | 0.601 |
| INNIDYFKKTT [FGFR2_Y656_YF] | 0.893 |
| NLGQQYNSPQE [UMPS_Y432] | 0.814 |
| FVSIVYNDSGE [TSC2_Y1650] | 1.2 |
| PSAELYSNALP [PDGFRB_Y716] | 1.19 |
| DRLAVCIDRVR [LMNA_Y45_Y45C] | 0.807 |
| EDEGLYTVRVP [MYOM3_Y343_M344T] | 0.83 |
| LDTIQYSKHPP [SQSTM1_Y433] | 0.652 |
| SIRYNYLLDVL [FGFR4_Y237] | 0.789 |

Biological target: SHP2-C SH2
Assay: as above

| Sequence | SH2 binding enrichment |
| --- | --- |
| EQKKNYNAMKK [SCN5A_Y1495_Y1494N] | 0.973 |
| FDGKDYIALNE [HLA-A_Y147_YF] | 0.807 |
| QEIATYPRLLE [KRT14_Y415_R416P] | 0.705 |
| ANAFIYDVQLP [L1CAM_Y420_V421D_YF] | 0.633 |
| GRQWNYVASMS [KLHL4_Y552] | 0.966 |
| TKVVHYWKWIK [KLK2_Y249_R250W] | 1.45 |
| KLADIYQAELR [GFAP_Y116_V115I] | 0.561 |
| TAALWYIFLHT [ENG_Y612_S615L_YF] | 1.09 |
| LYRYGYANTSE [SI_Y1233_C1229Y] | 1.31 |
| DEGVNHFMSKG [FBXO8_Y156_Y156H] | 0.778 |
| LSQAKYQIRFR [CRLF1_Y272_F268S_YF] | 0.78 |
| PEEKVYLSRGD [CRACR2A_Y141_H136P] | 0.529 |
| NKVKFYIPYMN [NCR1_Y84_D87Y] | 1.65 |
| GEFHVYRHLRR [PRKRIP1_Y82] | 0.358 |
| INNIDYFKKTT [FGFR2_Y656_YF] | 0.598 |
| NLGQQYNSPQE [UMPS_Y432] | 0.602 |
| FVSIVYNDSGE [TSC2_Y1650] | 1.01 |
| PSAELYSNALP [PDGFRB_Y716] | 0.734 |
| DRLAVCIDRVR [LMNA_Y45_Y45C] | 0.653 |
| EDEGLYTVRVP [MYOM3_Y343_M344T] | 0.617 |
| LDTIQYSKHPP [SQSTM1_Y433] | 0.771 |
| SIRYNYLLDVL [FGFR4_Y237] | 0.747 |
